T1: mutant human CD20 #6 (Y77F, N166D) (human, UniProt P11836 1-297)
T1 construct: Stably expressed on MG87 cells
T1 chain: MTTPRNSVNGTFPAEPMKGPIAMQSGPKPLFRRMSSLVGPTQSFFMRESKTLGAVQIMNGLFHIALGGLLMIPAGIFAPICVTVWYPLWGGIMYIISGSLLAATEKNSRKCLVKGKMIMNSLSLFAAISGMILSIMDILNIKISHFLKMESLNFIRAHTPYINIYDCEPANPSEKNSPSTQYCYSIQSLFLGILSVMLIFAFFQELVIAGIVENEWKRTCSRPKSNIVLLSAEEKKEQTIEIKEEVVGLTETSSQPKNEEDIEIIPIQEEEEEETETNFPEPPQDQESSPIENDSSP

T2: mutant human CD20 #9 (N163D, N166D) (human, UniProt P11836 1-297)
T2 construct: Stably expressed on MG87 cells
T2 chain: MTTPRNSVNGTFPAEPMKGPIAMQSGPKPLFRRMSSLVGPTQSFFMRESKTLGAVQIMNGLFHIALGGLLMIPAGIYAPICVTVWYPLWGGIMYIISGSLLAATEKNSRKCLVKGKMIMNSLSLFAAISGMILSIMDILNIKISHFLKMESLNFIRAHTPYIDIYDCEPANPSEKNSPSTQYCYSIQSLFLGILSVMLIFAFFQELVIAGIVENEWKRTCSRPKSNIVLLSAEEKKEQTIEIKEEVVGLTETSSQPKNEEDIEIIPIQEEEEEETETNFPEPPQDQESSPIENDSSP

T3: mutant human CD20 #1 (Y77F) (human, UniProt P11836 1-297)
T3 construct: Human residues replaced by mouse residues; stably expressed on MG87 cells
T3 sequence: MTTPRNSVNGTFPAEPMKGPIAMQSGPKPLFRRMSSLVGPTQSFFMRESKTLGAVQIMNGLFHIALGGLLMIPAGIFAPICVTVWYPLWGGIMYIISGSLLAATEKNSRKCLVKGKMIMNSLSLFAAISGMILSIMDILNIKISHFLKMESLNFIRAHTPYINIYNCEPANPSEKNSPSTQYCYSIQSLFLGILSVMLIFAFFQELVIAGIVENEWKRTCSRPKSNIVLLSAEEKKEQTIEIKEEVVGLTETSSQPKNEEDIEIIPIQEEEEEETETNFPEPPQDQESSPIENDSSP

T4: mutant human CD20 #5 (P172S) (human, UniProt P11836 1-297)
T4 construct: Stably expressed on MG87 cells
T4 sequence: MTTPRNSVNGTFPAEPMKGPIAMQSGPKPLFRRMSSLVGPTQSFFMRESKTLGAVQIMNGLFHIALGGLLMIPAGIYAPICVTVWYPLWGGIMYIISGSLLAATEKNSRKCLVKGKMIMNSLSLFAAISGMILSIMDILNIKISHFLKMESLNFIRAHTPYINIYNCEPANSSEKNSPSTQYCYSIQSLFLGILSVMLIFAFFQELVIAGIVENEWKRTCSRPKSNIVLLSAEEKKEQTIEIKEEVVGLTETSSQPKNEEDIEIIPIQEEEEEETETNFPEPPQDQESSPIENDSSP

T5: mutant human CD20 #8 (Y77F, N163D, N166D) (human, UniProt P11836 1-297)
T5 construct: Stably expressed on MG87 cells
T5 chain: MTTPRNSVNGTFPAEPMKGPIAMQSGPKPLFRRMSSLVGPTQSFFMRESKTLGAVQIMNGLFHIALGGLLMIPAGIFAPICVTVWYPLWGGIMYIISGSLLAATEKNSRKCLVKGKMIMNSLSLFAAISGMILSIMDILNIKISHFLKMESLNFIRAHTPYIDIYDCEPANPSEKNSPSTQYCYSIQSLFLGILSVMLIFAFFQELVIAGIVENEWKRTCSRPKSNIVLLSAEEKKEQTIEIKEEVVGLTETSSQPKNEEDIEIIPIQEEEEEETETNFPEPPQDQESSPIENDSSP

T6: mutant human CD20 #4 (N166D) (human, UniProt P11836 1-297)
T6 construct: Stably expressed on MG87 cells
T6 sequence: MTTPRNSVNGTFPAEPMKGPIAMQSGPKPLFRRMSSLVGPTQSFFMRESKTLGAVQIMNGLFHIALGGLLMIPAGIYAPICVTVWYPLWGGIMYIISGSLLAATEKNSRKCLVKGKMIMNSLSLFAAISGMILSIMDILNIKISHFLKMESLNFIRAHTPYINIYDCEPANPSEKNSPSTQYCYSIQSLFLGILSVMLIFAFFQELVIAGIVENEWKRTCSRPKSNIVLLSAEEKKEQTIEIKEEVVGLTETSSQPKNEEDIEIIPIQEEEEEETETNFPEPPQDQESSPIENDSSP

T7: mutant human CD20 #10 (A157V) (human, UniProt P11836 1-297)
T7 construct: Stably expressed on MG87 cells
T7 sequence: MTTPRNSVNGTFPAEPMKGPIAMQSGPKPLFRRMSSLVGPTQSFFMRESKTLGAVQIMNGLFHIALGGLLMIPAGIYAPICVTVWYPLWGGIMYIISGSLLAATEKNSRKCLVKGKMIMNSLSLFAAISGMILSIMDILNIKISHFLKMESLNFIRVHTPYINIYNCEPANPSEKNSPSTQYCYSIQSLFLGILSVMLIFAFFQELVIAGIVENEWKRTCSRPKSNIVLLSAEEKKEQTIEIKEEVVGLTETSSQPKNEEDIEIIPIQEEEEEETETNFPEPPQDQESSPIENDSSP


Assays:
Assay in all cases: FACS, mutant-hCD20 MG87 cells; 100%=best antibody
[1] = biological target: T1, mutant human CD20 #6 (Y77F, N166D)
Experimental: (§1) Briefly, approximately 1×10⁶ cells from each stably transfected cell line expressing a mutant human CD20 were collected and incubated with each anti-human antibody, at 10 μg/ml, on ice for 1 hr, followed by incubation with APC-conjugated goat anti-human IgG (Jackson Immunolabs), at 10 μg/ml, on ice for 45 min. For each antibody, binding to each mutant human CD20 was assessed by flow cytometry.

[2] = biological target: T2, mutant human CD20 #9 (N163D, N166D)
Experimental: as §1

[3] = biological target: T3, mutant human CD20 #1 (Y77F)
Experimental: as §1

[4] = biological target: T4, mutant human CD20 #5 (P172S)
Experimental: as §1

[5] = biological target: T5, mutant human CD20 #8 (Y77F, N163D, …)
Experimental: as §1

[6] = biological target: T6, mutant human CD20 #4 (N166D)
Experimental: as §1

[7] = biological target: T7, mutant human CD20 #10 (A157V)
Experimental: as §1

Percent of Binding to Mutant Human CD20 [1] [%]	Percent of Binding to Mutant Human CD20 [2] [%]	Percent of Binding to Mutant Human CD20 [3] [%]	Percent of Binding to Mutant Human CD20 [4] [%]	Percent of Binding to Mutant Human CD20 [5] [%]	Percent of Binding to Mutant Human CD20 [6] [%]	Percent of Binding to Mutant Human CD20 [7] [%]	Binder
0	3	36	76	0	22	77	9C3-8 (antibody, V domains shown, Fully human IgG, constant region not specified; also called 9C3-8N) VH: EVQLVESGGGLVQPGRSLRLSCAASGFSFHDYAMHWVRQAPGKGLEWVSGISWNSDSLGYADSVKGRFTISRDNAKNSLYLQMNSLRAEDTALYYCAKDNHYGSGSHYYYKYGMDVWGQGTTVTVSS VL: not shown
1	3	14	57	0	8	76	9E4-20 (antibody, V domains shown, Fully human IgG, constant region not specified; also called 9E4-20N) VH: EVQLVESGGGLVQPGRSLRLSCAASGFTFYDYAMHWVRQAPGKGLEWVSGISWNSDYIGYADSVKGRFTISRDNAKNSLYLQMNSLRAEDTALYYCAKDARYGRNNYYGMDVWGPGTTVTVSS VL: not shown
0	4	67	66	0	5	75	9D4-7 (antibody, V domains shown, Fully human IgG, constant region not specified; also called 9D4-7N) VH: EVQLVESGGGLVQPGRSLRLSCAASGFTFYDYAMHWVRQAPGKGLEWVSGISWNSDTIGYADSVKGRFTISRDNAKNSLYLQMNSLRAEDTALYYCTKDGSYGHFYSGLDVWGQGTTVTVSS VL: EIVLTQSPATLSLSPGERATLSCRASQSVSSYLAWYQQKPGQAPRLLIYVASNRATGIPARFSGSGSGTDFTLTISSLEPDDFAVYYCQQRYYWPLTFGGGTKVEIK
1	4	79	69	0	60	87	10F2-13 (antibody, V domains shown, Fully human IgG, constant region not specified; also called 10F2-13N; ab 10F2-13) VH: EEQLVESGGDLVQPGRSLRLSCAASGFTFHDYTMHWVRQAPGKGLEWVSGISWNSGSLGYADSVKGRFTISRDNAKKSLYLQMNSLRAEDTALYYCAKDPSYGSGSYHSYYGMDVWGQGTTVTVSS VL: EIVLTQSPATLSLSPGERATLSCWASQSISRYLVWYQQKCGQAPRLLIYEASKRATGIPVRFSGSGSGTDFTLTISSLESEDFAVYYCQQRFNWPLTFGGGTKVEIK

Second part, the binder before the results:

Binder	Percent of Binding to Mutant Human CD20 [1] [%]	Percent of Binding to Mutant Human CD20 [2] [%]	Percent of Binding to Mutant Human CD20 [3] [%]	Percent of Binding to Mutant Human CD20 [4] [%]	Percent of Binding to Mutant Human CD20 [5] [%]	Percent of Binding to Mutant Human CD20 [6] [%]	Percent of Binding to Mutant Human CD20 [7] [%]
3B9-10 (antibody, V domains shown, Fully human IgG, constant region not specified; also called 3B9-10N) VH: EVQLVESGGGLVQPGRSLRLSCVASGFTFNDYAMHWVRQAPGKGLEWVSVISWNSDSIGYADSVKGRFTISRDNAKNSLYLQMHSLRAEDTALYYCAKDNHYGSGSYYYYQYGMDVWGQGTTVTVSS VL: EIVMTQSPATLSVSPGERATLSCRASQSVSSNLAWYQQKPGQAPRLLIYGTSTRATGIPARFSGSGSGTEFTLTISSLQSEDFAVYYCQQYNNWPLTFGGGTKVEIK	1	4	56	72	0	40	79
6F6-1 (antibody, V domains shown, Fully human IgG, constant region not specified; also called 6F6-1N) VH: AVQLVESGGGLVQPGRSLRLSCAASGFTFRDYAMHWVRQGPGKGLEWVSGISWNTDYIGYADSVKGRFTISRDNAKNSLYLQMNSLRPEDTALYYCAKDARYGRDNYYGMDVWGQGTTVTVSS VL: EIVMTQSPATLSVSPGERATLSCRASQSVSHNLAWYQQKPGQAPRLLIYGAYTRATGIPDRFSGTGSGTEFTLTISSLQSEDFAVFYCQQYNNWPLTFGGGTKVEIK	16	4	100	100	0	85	98
8G6-5 (antibody, V domains shown, Fully human IgG, constant region not specified; also called 8G6-5N) VH: EVQLAESGGDLVQSGRSLRLSCAASGITFHDYAMHWVRQPPGKGLEWVSGISWNSDYIGYADSVKGRFTISRDNAKKSLYLQMNSLRPDDTALYYCVKDFHYGSGSNYGMDVWGQGTTVTVSP VL: EIVMTQSPATLSMSPGERATLSCRASQSVSRNLAWYQQKVGQAPRLLISGASTRATGIPARFSGSGSGTEFTLTINSLQSEDFAVYYCQQSNDWPLTFGQGTRLEIK	5	4	86	76	0	70	96
7E1-13 (antibody, V domains shown, Fully human IgG, constant region not specified; also called 7E1-13N) VH: EVQLVESGGGLVQPGRSLRLSCTASGFTFGDFPMHWVRQAPGKGLEWVSGITWNSGSIVYADSVKGRFTISRDNAKNSLYLQMNSLRTEDTALYYCAKDSHYGSGNFYYYYYGMDVWGQGTTVTVSS VL: not shown	1	4	94	85	0	84	92
2C11-4 (antibody, V domains shown, Fully human IgG, constant region not specified; also called 2C11-4N) VH: EVQLVESGGGLVQPGRSLRLSCAASGFTFRDYAMHWVRQGPGKGLEWVSGISWNTDYIGYADSVKGRFTISRDNAKNSLYLQMNSLRPEDTALYYCAKDARYGRDNYYGMDVWGQGTTVTVSS VL: EIVLTQSPATLSLSPGERATLSCRASQSVSRYLAWYQQKPGQAPRLLIHDASNRATGIPARFSGSGSGTDFTLTITSLEPEDFVVYYCQQRSDWPITFGQGTRLEIK	1	3	35	30	0	31	68
